Legend:
CheW = CheW (UniProt P0A964); conditions: cited from earlier work
[1] = target: T1, dansylated AHP1 (Arabidopsis), Q9ZNV9; test: fluorescence polarisation; Perrin plot of a single dansylated protein at 0.2 uM; 0.2 M potassium phosphate pH 8.0, 0.05% beta-D-dodecylmaltoside, 10 mM beta-cyclodextrin; 5-25 C; apparent molecular weight; conditions: remark: other sources report otherwise
T1 chain: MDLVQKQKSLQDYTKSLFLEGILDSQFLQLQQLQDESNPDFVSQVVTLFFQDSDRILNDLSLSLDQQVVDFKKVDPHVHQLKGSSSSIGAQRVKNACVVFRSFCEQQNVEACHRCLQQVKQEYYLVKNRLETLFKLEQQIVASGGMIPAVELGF

[2] = target: T1, dansylated AHP1 (Arabidopsis), Q9ZNV9; test: fluorescence polarisation; Perrin plot of 2 uM ETR1 together with 0.2 uM dansylated AHP1; 0.2 M potassium phosphate pH 8.0, 0.05% beta-D-dodecylmaltoside, 10 mM beta-cyclodextrin; 5-25 C; apparent molecular weight; conditions: remark: other sources report otherwise
[3] = target: T2, AHP1-GFP(S65T), wild type Arabidopsis histidine-containing phosphotransfer protein 1 fused to green fluorescent protein (Arabidopsis), Q9ZNV9; test: fluorescence polarisation; Perrin plot (anisotropy against temperature/viscosity) of 20 nM AHP1-GFP; 50 mM Tris-HCl pH 7.5, 100 mM KCl, 0.1% beta-D-dodecylmaltoside, 0.002% PMSF; 10-30 C, 0-20% glycerol; apparent molecular weight; conditions: remark: other sources report otherwise
T2 chain: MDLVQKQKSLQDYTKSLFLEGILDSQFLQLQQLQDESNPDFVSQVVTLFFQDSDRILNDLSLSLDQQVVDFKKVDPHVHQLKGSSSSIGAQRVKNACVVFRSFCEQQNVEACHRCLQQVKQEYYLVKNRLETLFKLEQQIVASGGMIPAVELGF

ETR1-D659A = target: T3, ETR1-D659A (Arabidopsis, UniProt P49333 1-738, D659A); test: fluorescence polarisation; ETR1 mutant (0.04-20 uM) titrated to 8 nM AHP1 mutant-GFP(S65T); 50 mM Tris-HCl pH 7.5, 100 mM KCl, 0.1% beta-D-dodecylmaltoside, 0.002% PMSF; fit to a single binding site; conditions: both partners purified
T3 construct: Represents the non-phosphorylated state of the receiver domain
T3 sequence (looked up): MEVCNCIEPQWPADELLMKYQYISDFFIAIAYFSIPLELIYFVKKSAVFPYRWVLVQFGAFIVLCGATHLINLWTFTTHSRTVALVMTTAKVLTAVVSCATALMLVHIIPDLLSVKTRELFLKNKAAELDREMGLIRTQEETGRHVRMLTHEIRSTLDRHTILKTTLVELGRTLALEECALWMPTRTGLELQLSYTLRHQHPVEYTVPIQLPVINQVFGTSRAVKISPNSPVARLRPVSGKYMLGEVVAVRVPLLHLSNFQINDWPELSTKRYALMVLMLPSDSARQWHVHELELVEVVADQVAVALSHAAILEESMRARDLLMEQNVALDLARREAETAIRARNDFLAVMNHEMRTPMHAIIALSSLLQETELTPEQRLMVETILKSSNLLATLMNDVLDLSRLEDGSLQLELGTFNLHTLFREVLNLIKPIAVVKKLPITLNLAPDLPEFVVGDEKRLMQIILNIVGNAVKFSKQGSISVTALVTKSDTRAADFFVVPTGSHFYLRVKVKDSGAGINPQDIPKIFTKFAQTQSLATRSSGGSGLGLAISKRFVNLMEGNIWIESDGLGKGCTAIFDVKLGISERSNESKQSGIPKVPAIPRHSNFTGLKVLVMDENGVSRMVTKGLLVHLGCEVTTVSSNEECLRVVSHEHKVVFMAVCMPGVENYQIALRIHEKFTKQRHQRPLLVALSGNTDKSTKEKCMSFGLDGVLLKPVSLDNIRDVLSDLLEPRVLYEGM

ETR1-D659E = target: T4, ETR1-D659E (Arabidopsis, UniProt P49333 1-738, D659E); test: as above; conditions: both partners purified
T4 construct: Phosphomimetic of the receiver domain aspartate; also called ETR1 mutant mimicking permanent phosphorylation
T4 sequence (looked up): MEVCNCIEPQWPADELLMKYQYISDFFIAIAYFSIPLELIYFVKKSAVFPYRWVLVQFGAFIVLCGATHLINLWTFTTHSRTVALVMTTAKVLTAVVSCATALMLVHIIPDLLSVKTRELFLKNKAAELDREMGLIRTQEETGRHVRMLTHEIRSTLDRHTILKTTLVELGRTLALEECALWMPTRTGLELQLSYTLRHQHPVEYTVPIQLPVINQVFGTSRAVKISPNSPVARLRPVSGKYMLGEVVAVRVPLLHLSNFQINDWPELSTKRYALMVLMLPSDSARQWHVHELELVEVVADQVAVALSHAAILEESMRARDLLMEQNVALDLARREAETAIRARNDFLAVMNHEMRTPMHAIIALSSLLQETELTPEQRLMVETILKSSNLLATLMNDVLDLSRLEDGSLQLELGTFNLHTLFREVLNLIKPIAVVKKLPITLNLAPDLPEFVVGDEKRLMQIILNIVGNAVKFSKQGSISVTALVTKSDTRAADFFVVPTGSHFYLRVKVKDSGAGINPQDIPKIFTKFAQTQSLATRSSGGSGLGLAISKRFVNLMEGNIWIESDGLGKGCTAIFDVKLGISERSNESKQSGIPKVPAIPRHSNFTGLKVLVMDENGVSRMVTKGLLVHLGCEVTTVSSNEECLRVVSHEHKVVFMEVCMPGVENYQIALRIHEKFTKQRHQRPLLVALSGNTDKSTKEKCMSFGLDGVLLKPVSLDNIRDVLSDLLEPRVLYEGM

[4] = target: the molecule itself; test: fluorescence polarisation; Perrin plot of a single dansylated protein at 0.2 uM; 0.2 M potassium phosphate pH 8.0, 0.05% beta-D-dodecylmaltoside, 10 mM beta-cyclodextrin; 5-25 C; apparent molecular weight

Chain of CheW (P0A964 whole entry): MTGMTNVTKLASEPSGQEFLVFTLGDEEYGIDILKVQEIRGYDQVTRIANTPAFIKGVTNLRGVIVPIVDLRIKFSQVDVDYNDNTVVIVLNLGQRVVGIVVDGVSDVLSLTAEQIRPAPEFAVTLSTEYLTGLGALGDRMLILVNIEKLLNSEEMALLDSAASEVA

## CheA (from UniProt P07363)
CheW
  Kd: 17 µM

B1: dansylated AHP1, Q9ZNV9 1-154 (natural protein)
chain: MDLVQKQKSLQDYTKSLFLEGILDSQFLQLQQLQDESNPDFVSQVVTLFFQDSDRILNDLSLSLDQQVVDFKKVDPHVHQLKGSSSSIGAQRVKNACVVFRSFCEQQNVEACHRCLQQVKQEYYLVKNRLETLFKLEQQIVASGGMIPAVELGF
modifications: here or on the partner: dansyl label (dansyl chloride; typical ratio of protein-dansyl labeling 1:4), positions not given; dansyl label (dansyl chloride; typical ratio of protein-dansyl labeling 1:4), positions not given
[1]
  stoichiometry N: 2
[2]
  stoichiometry N: 2

B2: AHP1-GFP(S65T), wild type Arabidopsis histidine-containing phosphotransfer protein 1 fused to green fluorescent protein, Q9ZNV9 1-154 (natural protein)
chain: MDLVQKQKSLQDYTKSLFLEGILDSQFLQLQQLQDESNPDFVSQVVTLFFQDSDRILNDLSLSLDQQVVDFKKVDPHVHQLKGSSSSIGAQRVKNACVVFRSFCEQQNVEACHRCLQQVKQEYYLVKNRLETLFKLEQQIVASGGMIPAVELGF
[3]
  stoichiometry N: 2

B3: AHP1(H79E)-GFP(S65T) (natural protein, Arabidopsis, UniProt Q9ZNV9 1-154, looked up)
chain: MDLVQKQKSLQDYTKSLFLEGILDSQFLQLQQLQDESNPDFVSQVVTLFFQDSDRILNDLSLSLDQQVVDFKKVDPHVEQLKGSSSSIGAQRVKNACVVFRSFCEQQNVEACHRCLQQVKQEYYLVKNRLETLFKLEQQIVASGGMIPAVELGF
notes: AHP1, Arabidopsis histidine-containing phosphotransfer protein 1; also called AHP1 mutant mimicking permanent phosphorylation
ETR1-D659A
  Kd: 3.6 µM
ETR1-D659E
  Kd: 16.3 µM

B4: AHP1(H79A)-GFP(S65T) (natural protein, Arabidopsis, UniProt Q9ZNV9 1-154, looked up)
chain: MDLVQKQKSLQDYTKSLFLEGILDSQFLQLQQLQDESNPDFVSQVVTLFFQDSDRILNDLSLSLDQQVVDFKKVDPHVAQLKGSSSSIGAQRVKNACVVFRSFCEQQNVEACHRCLQQVKQEYYLVKNRLETLFKLEQQIVASGGMIPAVELGF
notes: AHP1, Arabidopsis histidine-containing phosphotransfer protein 1
ETR1-D659A
  Kd: 15.4 µM
ETR1-D659E
  Kd: 2.6 µM

B5: dansylated ETR1 (receptor, Arabidopsis, UniProt P49333 1-738, looked up)
chain: MEVCNCIEPQWPADELLMKYQYISDFFIAIAYFSIPLELIYFVKKSAVFPYRWVLVQFGAFIVLCGATHLINLWTFTTHSRTVALVMTTAKVLTAVVSCATALMLVHIIPDLLSVKTRELFLKNKAAELDREMGLIRTQEETGRHVRMLTHEIRSTLDRHTILKTTLVELGRTLALEECALWMPTRTGLELQLSYTLRHQHPVEYTVPIQLPVINQVFGTSRAVKISPNSPVARLRPVSGKYMLGEVVAVRVPLLHLSNFQINDWPELSTKRYALMVLMLPSDSARQWHVHELELVEVVADQVAVALSHAAILEESMRARDLLMEQNVALDLARREAETAIRARNDFLAVMNHEMRTPMHAIIALSSLLQETELTPEQRLMVETILKSSNLLATLMNDVLDLSRLEDGSLQLELGTFNLHTLFREVLNLIKPIAVVKKLPITLNLAPDLPEFVVGDEKRLMQIILNIVGNAVKFSKQGSISVTALVTKSDTRAADFFVVPTGSHFYLRVKVKDSGAGINPQDIPKIFTKFAQTQSLATRSSGGSGLGLAISKRFVNLMEGNIWIESDGLGKGCTAIFDVKLGISERSNESKQSGIPKVPAIPRHSNFTGLKVLVMDENGVSRMVTKGLLVHLGCEVTTVSSNEECLRVVSHEHKVVFMDVCMPGVENYQIALRIHEKFTKQRHQRPLLVALSGNTDKSTKEKCMSFGLDGVLLKPVSLDNIRDVLSDLLEPRVLYEGM
modifications: dansyl label (dansyl chloride; typical ratio of protein-dansyl labeling 1:4), positions not given
notes: In a dodecylmaltoside micelle; theoretical molecular weight printed as 84.9 kDa; also called ETR1 (dansylated); source: recombinant, purified from the bacterial host, then dansylated
[4]
  stoichiometry N: 2
